Tests used:
Ac-ALLL-epoxide = system: T1, Ac-ALLL-epoxide
T1 sequence: XLLX

Ac-AVL-Ex = system: T2, Ac-AVL-Ex
T2 sequence: AVL

Ac-GGPFL-Ex = system: T3, Ac-GGPFL-Ex
T3 sequence: XGPFX

Ac-GPFL-Ex = system: T4, Ac-GPFL-Ex
T4 sequence: XPFX

Ac-IVL-Ex = system: T5, Ac-IVL-Ex
T5 sequence: IVL

Ac-LALL-epoxide = system: T6, Ac-LALL-epoxide
T6 sequence: XALX

Ac-LFLL-epoxide = system: T7, Ac-LFLL-epoxide
T7 sequence: XFLX

Ac-LLAL-epoxide = system: T8, Ac-LLAL-epoxide
T8 sequence: XLAX

Ac-LLFL-epoxide = system: T9, Ac-LLFL-epoxide
T9 sequence: XLFX

Ac-NorLPFL-Ex = system: T10, Ac-NorLPFL-Ex
T10 sequence: XPFX

Ac-PFL-Ex = system: T11, Ac-PFL-Ex
T11 sequence: PFL

Ac-PPFL-Ex = system: T12, Ac-PPFL-Ex
T12 sequence: XPFX

Benzoylbenzoic-PFL-Ex = system: T13, Benzoylbenzoic-PFL-Ex
T13 sequence: PFL

Eponemycin = system: T14, Eponemycin
T14 sequence: SL

Isooctanioc-PFL-Ex = system: T15, Isooctanioc-PFL-Ex
T15 sequence: PFL

[1] = system: T16, N-acetyl-piperidinecarbonyl-PFL-Ex
T16 sequence: PFL

[2] = system: T17, N-dimethylaminobenzoyl-PFL-EX
T17 sequence: PFL

Pyrazinecarbonyl-PFL-Ex = system: T18, Pyrazinecarbonyl-PFL-Ex
T18 sequence: PFL

compound 16 = system: T19, compound 16
T19 sequence: XLFX

compound 18 = system: T20, compound 18
T20 sequence: XLFX

dileucine α′,β′-epoxide = system: T21, dileucine α′,β′-epoxide
T21 sequence: LL

[3] = system: T22, monoleucine α′,β′-epoxide
T22 sequence: L

[4] = system: T23, tetraleucine α′,β′-epoxide
T23 sequence: LLLL

[5] = system: T24, tetrapeptide epoxide with P2 1-naphthyl, other side chains leucine
T24 sequence: LLXL

[6] = system: T25, tetrapeptide epoxide with P3 1-naphthyl, other side chains leucine
T25 sequence: LXLL

[7] = system: T26, tetrapeptide epoxide with P4 1-naphthyl, other side chains leucine
T26 sequence: XLLL

[8] = system: T27, tetrapeptide epoxide with P4 methylphenyl, other side chains leucine
T27 sequence: XLLL

[9] = system: T28, tetrapeptide epoxide with P4 p-benzoylphenyl, other side chains leucine
T28 sequence: XLLL

[10] = system: T29, tetrapeptide epoxide with P4 phenyl, other side chains leucine
T29 sequence: FLLL

trileucine α′,β′-epoxide = system: T30, trileucine α′,β′-epoxide
T30 sequence: LLL

purified bovine erythrocyte 20S proteasome
kobs/[I], PGPH activity (Z-LLE-AMC) (Ac-ALLL-epoxide): 220 M⁻¹ s⁻¹ | kobs/[I], chymotrypsin-like activity (Suc-LLVY-AMC) (Ac-ALLL-epoxide): 5300 M⁻¹ s⁻¹ | kobs/[I], tryptic-like activity (Boc-LRR-AMC) (Ac-ALLL-epoxide): 3.8 M⁻¹ s⁻¹ | kobs/[I], PGPH activity (Ac-AVL-Ex): 12.7 M⁻¹ s⁻¹ | kobs/[I], chymotrypsin-like activity (Ac-AVL-Ex): 10.8 M⁻¹ s⁻¹ | kobs/[I], trypsin-like activity (Ac-AVL-Ex): 1.8 M⁻¹ s⁻¹ | kobs/[I], PGPH activity (Ac-GGPFL-Ex): 170 M⁻¹ s⁻¹ | kobs/[I], chymotrypsin-like activity (Ac-GGPFL-Ex): 170 M⁻¹ s⁻¹ | kobs/[I], trypsin-like activity (Ac-GGPFL-Ex): 1.3 M⁻¹ s⁻¹ | kobs/[I], PGPH activity (Ac-GPFL-Ex): 190 M⁻¹ s⁻¹ | kobs/[I], chymotrypsin-like activity (Ac-GPFL-Ex): 5 M⁻¹ s⁻¹ | kobs/[I], trypsin-like activity (Ac-GPFL-Ex): NI | kobs/[I], PGPH activity (Ac-IVL-Ex): 14.6 M⁻¹ s⁻¹ | kobs/[I], chymotrypsin-like activity (Ac-IVL-Ex): 5 M⁻¹ s⁻¹ | kobs/[I], trypsin-like activity (Ac-IVL-Ex): 6.7 M⁻¹ s⁻¹ | kobs/[I], PGPH activity (Z-LLE-AMC) (Ac-LALL-epoxide): 130 M⁻¹ s⁻¹ | kobs/[I], chymotrypsin-like activity (Suc-LLVY-AMC) (Ac-LALL-epoxide): 1300 M⁻¹ s⁻¹ | kobs/[I], tryptic-like activity (Boc-LRR-AMC) (Ac-LALL-epoxide): 2 M⁻¹ s⁻¹ | kobs/[I], PGPH activity (Z-LLE-AMC) (Ac-LFLL-epoxide): not measurable | kobs/[I], chymotrypsin-like activity (Suc-LLVY-AMC) (Ac-LFLL-epoxide): 8500 M⁻¹ s⁻¹ | kobs/[I], tryptic-like activity (Boc-LRR-AMC) (Ac-LFLL-epoxide): not measurable | kobs/[I], PGPH activity (Z-LLE-AMC) (Ac-LLAL-epoxide): 20 M⁻¹ s⁻¹ | kobs/[I], chymotrypsin-like activity (Suc-LLVY-AMC) (Ac-LLAL-epoxide): 16000 M⁻¹ s⁻¹ | kobs/[I], tryptic-like activity (Boc-LRR-AMC) (Ac-LLAL-epoxide): 4.1 M⁻¹ s⁻¹ | kobs/[I], PGPH activity (Z-LLE-AMC) (Ac-LLFL-epoxide): not measurable | kobs/[I], chymotrypsin-like activity (Suc-LLVY-AMC) (Ac-LLFL-epoxide): 54000 M⁻¹ s⁻¹ | kobs/[I], tryptic-like activity (Boc-LRR-AMC) (Ac-LLFL-epoxide): not measurable | kobs/[I], PGPH activity (Ac-NorLPFL-Ex): 115 M⁻¹ s⁻¹ | kobs/[I], chymotrypsin-like activity (Ac-NorLPFL-Ex): 1.9 M⁻¹ s⁻¹ | kobs/[I], trypsin-like activity (Ac-NorLPFL-Ex): NI | kobs/[I], PGPH activity (Ac-PFL-Ex): 32 M⁻¹ s⁻¹ | kobs/[I], chymotrypsin-like activity (Ac-PFL-Ex): 42 M⁻¹ s⁻¹ | kobs/[I], trypsin-like activity (Ac-PFL-Ex): NI | kobs/[I], PGPH activity (Ac-PPFL-Ex): 10.6 M⁻¹ s⁻¹ | kobs/[I], chymotrypsin-like activity (Ac-PPFL-Ex): 6.4 M⁻¹ s⁻¹ | kobs/[I], trypsin-like activity (Ac-PPFL-Ex): NI | kobs/[I], PGPH activity (Benzoylbenzoic-PFL-Ex): 140 M⁻¹ s⁻¹ | kobs/[I], chymotrypsin-like activity (Benzoylbenzoic-PFL-Ex): 8.7 M⁻¹ s⁻¹ | kobs/[I], trypsin-like activity (Benzoylbenzoic-PFL-Ex): NI | kobs/[I], PGPH activity (Eponemycin): 175 M⁻¹ s⁻¹ | kobs/[I], chymotrypsin-like activity (Eponemycin): 58 M⁻¹ s⁻¹ | kobs/[I], trypsin-like activity (Eponemycin): 17 M⁻¹ s⁻¹ | kobs/[I], PGPH activity (Isooctanioc-PFL-Ex): 194 M⁻¹ s⁻¹ | kobs/[I], chymotrypsin-like activity (Isooctanioc-PFL-Ex): 190 M⁻¹ s⁻¹ | kobs/[I], trypsin-like activity (Isooctanioc-PFL-Ex): NI | kobs/[I], PGPH activity [1]: 45.3 M⁻¹ s⁻¹ | kobs/[I], chymotrypsin-like activity [1]: 31.2 M⁻¹ s⁻¹ | kobs/[I], trypsin-like activity [1]: NI | kobs/[I], PGPH activity [2]: 150 M⁻¹ s⁻¹ | kobs/[I], chymotrypsin-like activity [2]: 220 M⁻¹ s⁻¹ | kobs/[I], trypsin-like activity [2]: NI | kassoc = kobs/[I], PGPH activity (NLVS): 6.4 M⁻¹ s⁻¹ | kassoc = kobs/[I], chymotrypsin-like activity (NLVS): 6790 M⁻¹ s⁻¹ | kassoc = kobs/[I], trypsin-like activity (NLVS): 5.3 M⁻¹ s⁻¹ | kobs/[I], PGPH activity (Pyrazinecarbonyl-PFL-Ex): 23 M⁻¹ s⁻¹ | kobs/[I], chymotrypsin-like activity (Pyrazinecarbonyl-PFL-Ex): 520 M⁻¹ s⁻¹ | kobs/[I], trypsin-like activity (Pyrazinecarbonyl-PFL-Ex): 3.7 M⁻¹ s⁻¹ | kassoc = kobs/[I], PGPH activity (compound 16): 21 (80-150 µM) | kassoc = kobs/[I], trypsin-like activity (compound 16): 7.1 (80-130 µM) | kobs/[I], chymotryptic-like activity (Suc-LLVY-AMC) (compound 16): 183000 M⁻¹ s⁻¹ | kassoc = kobs/[I], PGPH activity (compound 18): 11 (10-150 µM) | kassoc = kobs/[I], chymotrypsin-like activity (compound 18): 5200 (0.11 µM) | kassoc = kobs/[I], trypsin-like activity (compound 18): 580 (0.5-5 µM) | kobs/[I], PGPH activity (dileucine α′,β′-epoxide): † | kobs/[I], chymotrypsin-like activity (dileucine α′,β′-epoxide): 3.1 (100-160 µM) | kobs/[I], trypsin-like activity (dileucine α′,β′-epoxide): † | kobs/[I], PGPH activity [3]: † | kobs/[I], chymotrypsin-like activity [3]: † | kobs/[I], trypsin-like activity [3]: † | kobs/[I], PGPH activity [4]: 9.2 (100-160 µM) | kobs/[I], chymotrypsin-like activity [4]: 14,000 (50-150 nm) | kobs/[I], trypsin-like activity [4]: † | kobs/[I], PGPH activity (Z-LLE-AMC) [5]: not measurable | kobs/[I], chymotryptic-like activity (Suc-LLVY-AMC) [5]: 29000 M⁻¹ s⁻¹ | kobs/[I], tryptic-like activity (Boc-LRR-AMC) [5]: not measurable | kobs/[I], PGPH activity (Z-LLE-AMC) [6]: not measurable | kobs/[I], chymotryptic-like activity (Suc-LLVY-AMC) [6]: 31000 M⁻¹ s⁻¹ | kobs/[I], tryptic-like activity (Boc-LRR-AMC) [6]: not measurable | kobs/[I], PGPH activity (Z-LLE-AMC) [7]: not measurable | kobs/[I], chymotryptic-like activity (Suc-LLVY-AMC) [7]: 29000 M⁻¹ s⁻¹ | kobs/[I], tryptic-like activity (Boc-LRR-AMC) [7]: not measurable | kobs/[I], PGPH activity (Z-LLE-AMC) [8]: 50 M⁻¹ s⁻¹ | kobs/[I], chymotryptic-like activity (Suc-LLVY-AMC) [8]: 63000 M⁻¹ s⁻¹ | kobs/[I], tryptic-like activity (Boc-LRR-AMC) [8]: 5.4 M⁻¹ s⁻¹ | kobs/[I], PGPH activity (Z-LLE-AMC) [9]: not measurable | kobs/[I], chymotryptic-like activity (Suc-LLVY-AMC) [9]: 23000 M⁻¹ s⁻¹ | kobs/[I], tryptic-like activity (Boc-LRR-AMC) [9]: not measurable | kobs/[I], PGPH activity (Z-LLE-AMC) [10]: 78 M⁻¹ s⁻¹ | kobs/[I], chymotryptic-like activity (Suc-LLVY-AMC) [10]: 37000 M⁻¹ s⁻¹ | kobs/[I], tryptic-like activity (Boc-LRR-AMC) [10]: 5.5 M⁻¹ s⁻¹ | kobs/[I], PGPH activity (trileucine α′,β′-epoxide): 120 (8-12 µM) | kobs/[I], chymotrypsin-like activity (trileucine α′,β′-epoxide): 780 (1-2.5 µM) | kobs/[I], trypsin-like activity (trileucine α′,β′-epoxide): 5.1 M⁻¹ s⁻¹
